Measured values published in article PMC6748613 (mAbs, 2019).

molecular target: vascular endothelial growth factor (VEGF)-A, isoform 165 (Homo sapiens, UniProt P15692-4); test: SPR

ΔΔG_bind against the parental Fab [kcal/mol] | Binder
-1.71 | bH1 Fab variant Y^H33-M^H98-M^H99-R^L30b (Fab, V domains shown) VH: not shown VL: DIQMTQSPSSLSASVGDRVTITCRASQDIPRRISGYVAWYQQKPGKAPKLLIYWGSYLYSGVPSRFSGSGSGTDFTLTISSLQPEDFATYYCQQHYTTPPTFGQGTKVEIK
-1.09 | bH1 Fab variant W^H33-F^H98-G^H99-R^L30b (Fab, V domains shown) VH: not shown VL: DIQMTQSPSSLSASVGDRVTITCRASQDIPRRISGYVAWYQQKPGKAPKLLIYWGSYLYSGVPSRFSGSGSGTDFTLTISSLQPEDFATYYCQQHYTTPPTFGQGTKVEIK
-1.51 | bH1 Fab variant W^H33-M^H98-G^H99-R^L30b (Fab, V domains shown) VH: not shown VL: DIQMTQSPSSLSASVGDRVTITCRASQDIPRRISGYVAWYQQKPGKAPKLLIYWGSYLYSGVPSRFSGSGSGTDFTLTISSLQPEDFATYYCQQHYTTPPTFGQGTKVEIK
-2.27 | bH1 Fab variant W^H33-M^H98-M^H99-R^L30b (Fab, V domains shown) VH: EVQLVESGGGLVQPGGSLRLSCAASGFNIKDTWIHWVRQAPGKGLEWVARIYPTNGYTRYADSVKGRFTISADTSKNTAYLQMNSLRAEDTAVYYCSRWGGMMFYAMDYWGQGTLVTVSS VL: DIQMTQSPSSLSASVGDRVTITCRASQDIPRRISGYVAWYQQKPGKAPKLLIYWGSYLYSGVPSRFSGSGSGTDFTLTISSLQPEDFATYYCQQHYTTPPTFGQGTKVEIK
-2.57 | bH1 Fab variant W^H33-W^H98-D^H99-R^L30b (Fab, V domains shown) VH: EVQLVESGGGLVQPGGSLRLSCAASGFNIKDTWIHWVRQAPGKGLEWVARIYPTNGYTRYADSVKGRFTISADTSKNTAYLQMNSLRAEDTAVYYCSRWGGWDFYAMDYWGQGTLVTVSS VL: DIQMTQSPSSLSASVGDRVTITCRASQDIPRRISGYVAWYQQKPGKAPKLLIYWGSYLYSGVPSRFSGSGSGTDFTLTISSLQPEDFATYYCQQHYTTPPTFGQGTKVEIK
-2.07 | bH1 Fab variant W^H33-W^H98-M^H99-R^L30b (Fab, V domains shown) VH: EVQLVESGGGLVQPGGSLRLSCAASGFNIKDTWIHWVRQAPGKGLEWVARIYPTNGYTRYADSVKGRFTISADTSKNTAYLQMNSLRAEDTAVYYCSRWGGWMFYAMDYWGQGTLVTVSS VL: DIQMTQSPSSLSASVGDRVTITCRASQDIPRRISGYVAWYQQKPGKAPKLLIYWGSYLYSGVPSRFSGSGSGTDFTLTISSLQPEDFATYYCQQHYTTPPTFGQGTKVEIK
-1.58 | bH1 Fab variant Y^H33-M^H98-D^H99-R^L30b (Fab, V domains shown) VH: not shown VL: DIQMTQSPSSLSASVGDRVTITCRASQDIPRRISGYVAWYQQKPGKAPKLLIYWGSYLYSGVPSRFSGSGSGTDFTLTISSLQPEDFATYYCQQHYTTPPTFGQGTKVEIK
-1.88 | bH1 Fab variant Y^H33-W^H98-D^H99-R^L30b (Fab, V domains shown) VH: not shown VL: DIQMTQSPSSLSASVGDRVTITCRASQDIPRRISGYVAWYQQKPGKAPKLLIYWGSYLYSGVPSRFSGSGSGTDFTLTISSLQPEDFATYYCQQHYTTPPTFGQGTKVEIK
-0.97 | bH1 Fab variant Y^H33-W^H98-R^H99-R^L30b (Fab, V domains shown) VH: not shown VL: DIQMTQSPSSLSASVGDRVTITCRASQDIPRRISGYVAWYQQKPGKAPKLLIYWGSYLYSGVPSRFSGSGSGTDFTLTISSLQPEDFATYYCQQHYTTPPTFGQGTKVEIK
-2.04 | bH1 Fab variant W^H33-F^H98-D^H99-R^L30b (Fab, V domains shown) VH: EVQLVESGGGLVQPGGSLRLSCAASGFNIKDTWIHWVRQAPGKGLEWVARIYPTNGYTRYADSVKGRFTISADTSKNTAYLQMNSLRAEDTAVYYCSRWGGFDFYAMDYWGQGTLVTVSS VL: DIQMTQSPSSLSASVGDRVTITCRASQDIPRRISGYVAWYQQKPGKAPKLLIYWGSYLYSGVPSRFSGSGSGTDFTLTISSLQPEDFATYYCQQHYTTPPTFGQGTKVEIK
-1.89 | bH1 Fab variant W^H33-M^H98-D^H99-R^L30b (Fab, V domains shown) VH: EVQLVESGGGLVQPGGSLRLSCAASGFNIKDTWIHWVRQAPGKGLEWVARIYPTNGYTRYADSVKGRFTISADTSKNTAYLQMNSLRAEDTAVYYCSRWGGMDFYAMDYWGQGTLVTVSS VL: DIQMTQSPSSLSASVGDRVTITCRASQDIPRRISGYVAWYQQKPGKAPKLLIYWGSYLYSGVPSRFSGSGSGTDFTLTISSLQPEDFATYYCQQHYTTPPTFGQGTKVEIK
